The results in this text go back to patent publication US20170174775A1 (published 2017).

As a reminder, the IC50 is the point on the concentration scale where inhibition reaches its midpoint. High values mean weaker potency in that assay, low ones greater potency in that assay.

Residue numbers refer to the chain shown, from its start.

The target in this test is T1, IL-RI (Receptor Binding Assay).
T1 construct: The construct used in the RBA is not described; it may be the same as the IL-1R1 fusion protein; also called IL-1RI; IL-1R1
The test is described as follows: Receptor Binding Assay; inhibition of IL-1 binding to IL-RI.

T1 sequence (P14778 whole entry, the tested form may be a part): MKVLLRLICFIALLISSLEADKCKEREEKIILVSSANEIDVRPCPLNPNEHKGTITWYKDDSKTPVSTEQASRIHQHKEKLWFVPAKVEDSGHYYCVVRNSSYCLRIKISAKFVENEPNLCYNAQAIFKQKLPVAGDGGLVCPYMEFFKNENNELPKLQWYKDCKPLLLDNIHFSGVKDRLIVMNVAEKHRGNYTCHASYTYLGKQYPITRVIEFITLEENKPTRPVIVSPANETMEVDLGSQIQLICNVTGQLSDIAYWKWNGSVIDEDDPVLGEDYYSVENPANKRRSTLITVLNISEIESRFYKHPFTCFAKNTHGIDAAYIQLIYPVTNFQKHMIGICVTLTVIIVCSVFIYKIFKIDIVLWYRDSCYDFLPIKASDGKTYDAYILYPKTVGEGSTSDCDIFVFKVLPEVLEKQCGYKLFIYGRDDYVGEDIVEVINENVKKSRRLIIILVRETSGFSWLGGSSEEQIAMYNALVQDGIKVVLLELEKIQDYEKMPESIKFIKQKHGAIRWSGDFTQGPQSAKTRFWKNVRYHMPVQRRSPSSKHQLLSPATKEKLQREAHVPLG

B1: DOM4-130-54 (other)
VL: DIQMTQSPSSLSASVGDRVTITCRASQDIYLNLDWYQQKPGKAPKLLINFGSELQSGVPSRFSGSGYGTDFTLTISSLQPEDFATYYCQPSFYFPYTFGQGTKVEIKR
notes: dAb (VK single variable domain) against IL-1R1; parent
B1 had an IC50 of 0.28 nM.

B2: DOM4-130-201 (other)
chain: B1 VL with N49K, S77N, R108W
Molecule B2 displayed an IC50 of 0.257 nM.

B3: DOM4-130-202 (other)
chain: B1 VL with T22S, N49S, F83S, F94Y
The molecule B3 had an IC50 of 0.254 nM.
